According to patent publication US20040072333A1, “Method of purifying lantibiotics” (ImmuCell Corporation, priority 2002, published 2004):
Where no end group is shown, it is not given here.

Experiments:
[1] = tested on: non-mastitic cows; assay: Mammary infusion, somatic cell count of quarter milk; type: in vivo
Experimental: Bovine intra-mammary infusion of impure nisin stimulates the production of high levels of somatic cells in milk as part of an inflammatory reaction.
Non-mastitic cows were treated with an infusion of vehicle, untreated, and trypsin-treated nisin (30 mg/10 ml) in the quarter after the 4th, 5th, and 6th milkings. The somatic cell count of the milk was recorded before, during, and after milking. High somatic cell counts were indicative of an inflammatory reaction. Statistical analysis was carried out using two sided t-Test comparisons with unequal variance.

[2] = tested on: mastitic isolate of Streptococcus agalactiae (strain #20); assay: Antibacterial 96 well plate assay; type: cell-based; settings: bacterial growth read as absorbance
Experimental: To confirm that the biological activity of nisin is also unaltered, in vitro bactericidal activity assay was performed. Trypsin-treated nisin was analyzed for antibacterial activity against a mastitic isolate of Streptococcus agalactiae (strain #20) in a 96 well plate assay and bacterial growth was read as absorbance readings on an ELISA reader.
Nisin activity was determined using an antibacterial assay against a mastitic isolate of Streptococcus agalactiae (IC 20) in a 96 well plate assay. Test samples were serially diluted into M17 10% lactose medium and then mixed with an equal volume of 10^4 cfu/ml. After 66 hr of incubation at room temperature, the plates were read on an ELISA reader at 450 nm. Wells containing bacterial growth gave high absorbance readings. The data was analyzed using a four-parameter curve-fitting software.

[3] = molecular target: T1, TPCK treated insoluble trypsin (Bos taurus, UniProt P00760); assay: Insoluble trypsin (bound to beaded agarose) digestion, HPLC; type: physicochemical; settings: 9.55 mg/ml, 1.6 ml insoluble trypsin on agarose, 6 hr, 30° C., trypsin removed by centrifugation
T1 construct: purchased Sigma Chemical Company
T1 sequence (P00760 24-246): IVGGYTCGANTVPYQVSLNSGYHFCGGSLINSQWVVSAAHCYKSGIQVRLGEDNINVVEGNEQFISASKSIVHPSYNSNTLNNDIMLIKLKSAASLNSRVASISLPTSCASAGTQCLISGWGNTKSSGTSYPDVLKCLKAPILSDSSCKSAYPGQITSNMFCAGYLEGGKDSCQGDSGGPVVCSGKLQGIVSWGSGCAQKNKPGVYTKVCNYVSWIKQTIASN
Experimental: To determine whether insoluble trypsin treatment of nisin preparations was also effective in digestion of impurities, but not nisin itself, 1.6 liters of partially purified nisin prepared at 9.55 mg/ml was treated with 1.6 ml of TPCK treated insoluble trypsin bound to beaded agarose. After 6 hr of incubation at 30° C., and following removal of insoluble trypsin by centrifugation, the overall nisin recovery was about 90%.
(§1) Digestion experiments using pepsin (EC3.4.23.1), thrombin (EC3.4.21.5), V8 protease (EC3.4.21.19), subtilisin (EC3.4.21.62), papain (EC3.4.22.2), thermolysin (EC3.4.24.27), and clostripain (EC3.4.22.8) were performed essentially as described for trypsin and at pH 5.80. Pepsin digestion was also performed at pH 3.50. For trypsin digestions using trypsin linked to a solid matrix (e.g. insoluble trypsin), 1.6 liters of partially purified nisin was prepared at 9.5 mg/ml in 10 mM Tris HCl and pH 5.50. Following the addition of 1.6 ml of TPCK-treated trypsin bound to beaded agarose (Sigma Chemical Company), the reaction mixture was incubated at 30° C. for 6 hours with frequent agitation. Insoluble trypsin was removed by centrifugation at approximately 4000×g for 7 minutes. The resultant supernatant containing nisin was prepared for HPLC analysis.

[4] = molecular target: subtilisin (Bacillus licheniformis, UniProt P00780); assay: Protease digestion with subtilisin; type: physicochemical; settings: pH 5.80
Chain of subtilisin (P00780 106-379): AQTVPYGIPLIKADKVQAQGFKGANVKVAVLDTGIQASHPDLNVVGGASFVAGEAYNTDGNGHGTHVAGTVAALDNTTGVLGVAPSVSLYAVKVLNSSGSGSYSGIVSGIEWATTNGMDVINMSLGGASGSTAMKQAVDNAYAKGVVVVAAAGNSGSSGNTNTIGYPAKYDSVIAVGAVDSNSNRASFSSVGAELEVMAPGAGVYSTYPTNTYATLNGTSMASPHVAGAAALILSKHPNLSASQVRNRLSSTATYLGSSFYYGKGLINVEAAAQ
Experimental: (§2) Nisin is comparatively resistant to proteolysis by trypsin under the optimized conditions described above. To determine whether nisin is also resistant to other proteolytic enzymes under similar conditions, partially purified nisin was exposed to pepsin, thrombin, V8 protease (Endo Gluc), subtilisin, papain, thermolysin, or clostripain at pH 5.80. Pepsin exposure was also performed at pH 3.50. […] Pepsin at pH 5.80 and thrombin appeared ineffective against the impurities as well.
as §1

[5] = tested on: trypsin; assay: Tryptic digestion of nisin at pH 7.0, SDS-PAGE and HPLC; type: physicochemical; settings: pH 7.0, nisin to trypsin about 10:1 (w/w), 30° C., after 96 hr
Experimental: Nisin has two internal lysine residues that are potential targets of the proteolytic enzyme trypsin. To determine whether nisin could be digested by trypsin, a digestion reaction mixture was prepared where a nisin preparation, partially purified nisin from a fermentor run, was exposed to trypsin under conditions optimal for trypsin activity. These conditions included a reaction pH of 7.0 and a nisin to trypsin ratio of about 10:1 (w/w). Samples were incubated at 30° C. and aliqoutes were removed for analysis every 24 hr, beginning at time zero. […] After 96 hr of treatment, more than 90% of nisin was degraded.
Tryptic digestion of nisin (50 mg) was carried out in 50 ml of a buffer consisting of 25mM sodium acetate, 6 mM Tris acetate, 5 mM CaCl2, and pH 7.0. One ml of USP grade trypsin (5mg/ml) was added followed by incubation at 30° C. Thereafter, 500 μl aliqouts of trypsin were added at times 24, 48, 72, and 96 hours. At each time point in the experiment, 2 ml aliquots were removed for further analysis, of which […] was immediately plated on blood agar plates for determination of contamination. The remaining 1.8 ml was stored at −20° C. until the end of experiment for SDS-PAGE and HPLC analysis.

[6] = molecular target: V8 protease (Endo Gluc) (Staphylococcus aureus, UniProt P0C1U8); assay: Protease digestion with V8 protease; type: physicochemical; settings: pH 5.80
Chain of V8 protease (Endo Gluc) (P0C1U8 69-336): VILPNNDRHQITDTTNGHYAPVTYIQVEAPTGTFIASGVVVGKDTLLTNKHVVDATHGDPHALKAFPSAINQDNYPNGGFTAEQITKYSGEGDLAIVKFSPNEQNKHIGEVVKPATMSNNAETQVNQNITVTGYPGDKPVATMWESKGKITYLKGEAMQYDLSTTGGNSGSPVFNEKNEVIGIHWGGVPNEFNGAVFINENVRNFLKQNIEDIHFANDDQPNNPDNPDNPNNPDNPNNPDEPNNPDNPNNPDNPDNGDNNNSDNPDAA
Experimental: as §2, §1

[7] = molecular target: thrombin (Homo sapiens, UniProt P00734); assay: Protease digestion with thrombin; type: physicochemical; settings: pH 5.80
Experimental: as §2, §1

[8] = tested on: pepsin; assay: Protease digestion with pepsin; type: physicochemical
Experimental: as §2, §1

[9] = molecular target: thermolysin (Bacillus thermoproteolyticus, UniProt P00800); assay: Protease digestion with thermolysin; type: physicochemical; settings: pH 5.80
Chain of thermolysin (P00800 233-548): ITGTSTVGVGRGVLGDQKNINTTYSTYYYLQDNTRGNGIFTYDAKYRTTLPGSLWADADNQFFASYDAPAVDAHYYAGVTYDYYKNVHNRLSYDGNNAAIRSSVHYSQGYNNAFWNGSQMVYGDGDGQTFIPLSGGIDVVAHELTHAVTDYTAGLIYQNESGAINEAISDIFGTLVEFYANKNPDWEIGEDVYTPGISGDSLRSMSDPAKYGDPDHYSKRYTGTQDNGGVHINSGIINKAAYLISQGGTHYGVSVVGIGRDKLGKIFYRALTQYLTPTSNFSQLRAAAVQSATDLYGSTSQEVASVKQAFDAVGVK
Experimental: as §2, §1

[10] = tested on: trypsin; assay: Soluble trypsin digestion at low pH and low trypsin to nisin ratio, HPLC; type: physicochemical; settings: below pH 5.50, nisin 11 mg/ml, trypsin 27.5 μg/ml (400:1 w/w), overnight, room temperature
Experimental: Peptide analysis has identified over 40 peptides that co-purify with nisin. All of these peptides have been identified as being products of Lactococcus fermentation. Since it was determined that nisin, at neutral to slightly alkaline pH and high trypsin to nisin ratios, is subject to proteolysis by trypsin, conditions were altered in an attempt to identify conditions under which trypsin would not degrade nisin but would degrade the peptide impurities in the nisin sample. Reaction mixtures containing nisin preparations, at a concentration of 11 mg/ml, and USP grade trypsin at a concentration of 27.5 μg/ml, were incubated overnight at room temperature (400:1 w/w). The pH of the mixtures ranged from 5.25 to 6.5.
To further optimize the conditions for removal of peptide impurities from nisin preparations by tryptic digestion, two liters of partially purified nisin was prepared at 4.55 mg/ml and incubated with 25 mg of USP grade trypsin for 16 hrs at 30° C. in 10 mM citric acid, pH 5.80. […] Moreover, subsequent removal of trypsin using a molecular weight cut off membrane yielded a recovery of 87.5% nisin and 0.38% trypsin.
For treatment of nisin with soluble trypsin, 2 liters of partially purified nisin from a fermentation product was prepared at 4.55 mg/ml in 10 mM citric acid buffer and 5 mM CaCl2. […] Nisin recovery and purity was determined by SDS-PAGE and HPLC. […]

[11] = molecular target: T2, papain (Carica papaya, UniProt P00784); assay: Protease digestion with papain; type: physicochemical; settings: pH 5.80
T2 sequence (P00784 134-345): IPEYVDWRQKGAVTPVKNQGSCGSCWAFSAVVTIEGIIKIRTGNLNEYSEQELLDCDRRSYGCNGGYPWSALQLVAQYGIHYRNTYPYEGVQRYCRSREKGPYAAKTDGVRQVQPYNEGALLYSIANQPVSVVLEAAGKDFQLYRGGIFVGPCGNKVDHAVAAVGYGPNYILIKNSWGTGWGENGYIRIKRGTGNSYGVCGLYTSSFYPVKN
Experimental: as §2, §1

[12] = molecular target: T3, clostripain (Hathewaya histolytica, UniProt P09870); assay: Protease digestion with clostripain; type: physicochemical; settings: pH 5.80
T3 sequence (P09870 whole entry, looked up): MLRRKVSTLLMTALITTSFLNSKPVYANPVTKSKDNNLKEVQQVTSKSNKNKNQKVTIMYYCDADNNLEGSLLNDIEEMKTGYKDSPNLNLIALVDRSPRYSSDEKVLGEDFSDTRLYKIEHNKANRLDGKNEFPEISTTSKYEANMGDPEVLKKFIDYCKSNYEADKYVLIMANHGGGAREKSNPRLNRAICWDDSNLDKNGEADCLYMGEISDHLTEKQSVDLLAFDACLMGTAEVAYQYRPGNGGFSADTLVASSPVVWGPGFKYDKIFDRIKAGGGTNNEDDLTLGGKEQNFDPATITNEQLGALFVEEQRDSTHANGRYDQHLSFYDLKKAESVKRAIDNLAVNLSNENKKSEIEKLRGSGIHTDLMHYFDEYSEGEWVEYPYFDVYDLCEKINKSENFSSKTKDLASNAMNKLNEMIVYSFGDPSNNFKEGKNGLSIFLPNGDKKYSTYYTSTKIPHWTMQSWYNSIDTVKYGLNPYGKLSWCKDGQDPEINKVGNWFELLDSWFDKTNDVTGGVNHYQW
Experimental: as §2, §1

trypsin/nisin: nisin preparation purified by selective trypsin digestion of peptide impurities (ITSISLCTPGCKTGALMGCNMKTATCHCSIHVSK; also: lantibiotic nisin-A: lanthionine thioether rings, Dha/Dhb, positions not given here; UniProt P13068 24-57, looked up)
somatic cell count of milk from treated quarters (inflammatory reaction), summary in words ([1]; intra-mammary infusion of 30 mg, non-mastitic cows): much lower and is not statistically different from quarters treated with buffer alone
Somatic Cell Count of Quarter Milk, mean of group ([1]; milking 1 (before treatments; infusions 30 mg/10 ml given after 4th, 5th, 6th milkings)): 10 X1000
Somatic Cell Count of Quarter Milk, mean of group ([1]; milking 2 (before treatments)): 22 X1000
Somatic Cell Count of Quarter Milk, mean of group ([1]; milking 3 (before treatments)): 23 X1000
Somatic Cell Count of Quarter Milk, mean of group ([1]; milking 4 (before first treatment)): 21 X1000
Somatic Cell Count of Quarter Milk, mean of group ([1]; milking 5, infusions 30 mg/10 ml after 4th, 5th, 6th milkings): 54 X1000
Somatic Cell Count of Quarter Milk, mean of group ([1]; milking 6): 187 X1000
Somatic Cell Count of Quarter Milk, mean of group ([1]; milking 7): 300 X1000
Somatic Cell Count of Quarter Milk, mean of group ([1]; milking 8): 148 X1000
Somatic Cell Count of Quarter Milk, mean of group ([1]; milking 9): 106 X1000
Somatic Cell Count of Quarter Milk, mean of group ([1]; milking 10): 82 X1000
Somatic Cell Count of Quarter Milk, mean of group ([1]; milking 11): 103 X1000
Somatic Cell Count of Quarter Milk, mean of group ([1]; milking 12): 81 X1000
Somatic Cell Count of Quarter Milk, mean of group ([1]; milking 13): 60 X1000
Somatic Cell Count of Quarter Milk, mean of group ([1]; milking 14): 36 X1000
Somatic Cell Count of Quarter Milk, mean of group ([1]; milking 15): 53 X1000
Somatic Cell Count of Quarter Milk, mean of group ([1]; milking 16): 37 X1000
Somatic Cell Count of Quarter Milk, mean of group ([1]; milking 17): 40 X1000
Somatic Cell Count of Quarter Milk, mean of group ([1]; milking 18): 41 X1000
antimicrobial activity compared with control, untreated nisin [2]: not substantially different

nisin (ITSISLCTPGCKTGALMGCNMKTATCHCSIHVSK; cysteine pairing not given here; also: lantibiotic nisin-A, modified residues not placed; UniProt P13068 24-57, looked up) [lysine-rich lantibiotic, polypeptide antimicrobial agent with lanthionine and β-methyl-lanthionine residues, used as food preservative]
overall nisin recovery after insoluble trypsin incubation [3]: about 90%
proteolytic digestion of nisin by subtilisin [4]: resistant
nisin degraded by trypsin [5]: more than 90%
proteolytic digestion of nisin by V8 protease [6]: resistant
proteolytic digestion of nisin by thrombin [7]: resistant
proteolytic digestion of nisin by pepsin ([8]; pH 3.50): did not digest nisin
proteolytic digestion of nisin by pepsin ([8]; pH 5.80): resistant
proteolytic digestion of nisin by thermolysin [9]: resistant
hydrolysis of nisin by trypsin [10]: minimal hydrolysis
proteolytic digestion of nisin by papain [11]: resistant
proteolytic digestion of nisin by clostripain [12]: resistant
